Test results published in the supplement of paper PMC12042874.
± gives the uncertainty stated by the source.

Columns and labels:
[1] = amyloid nucleation score (Sup35N fusion, yeast selection) (log enrichment); library NNK1; higher = more nucleation; inactive = no reads after selection
Summary of the method: (§1)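 Nucleation score is defined as the DiMSum log enrichment of output over input reads, with centring on the mode score of non-aggregating sequences. A minimum of 100 input reads was required for each sequence. Reads came from Illumina sequencing of plasmid inserts from psi-negative yeast expressing Sup35N fused to peptides of 20 random codons, induced with 100 μM copper sulfate for 24 hours and grown 7 days at 30°C on medium lacking adenine and uracil.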

[2] = amyloid nucleation score (Sup35N fusion, yeast selection) (log enrichment); library NNK2; higher = more nucleation; inactive = no reads after selection
Summary of the method: as §1

ASRYGDF
amyloid nucleation score [1]: 0.555 ± 0.42

ATQNLKY
amyloid nucleation score [1]: 0.824 ± 0.79

AVCVMWANGLVYMTSLECER
amyloid nucleation score [1]: -0.679 ± 0.35

AVCVPVSKDGPVKGKFINKY
amyloid nucleation score [1]: 0.329 ± 0.41

AVELAKSPLWIPKLGYVMNQ
amyloid nucleation score [1]: 0.233 ± 0.48

AVFDSKLFLQSWVASTGIRV
amyloid nucleation score [1]: inactive

AVFGTIIESFMSGG
amyloid nucleation score [1]: 0.399 ± 0.34

AVFLVRAPSTRGLARMVDLA
amyloid nucleation score [1]: inactive

AVGGDSMYSLQSGYKLILAS
amyloid nucleation score [1]: 0.288 ± 0.35

YQMVTCWAYDSQDIGSWCAG
amyloid nucleation score [2]: -0.012 ± 1.1

YQNIFLRTAALRAGSAD
amyloid nucleation score [2]: 0.765 ± 0.24

YQNVVCRDIQIGFWNLADSI
amyloid nucleation score [2]: 5.824 ± 0.056

YQSDK
amyloid nucleation score [2]: inactive

YRATYVLRVAFSWVVSCPGD
amyloid nucleation score [2]: -0.377 ± 0.41

YRCYTSGFLFFHGSCLNCKS
amyloid nucleation score [2]: 0.227 ± 1.1

YRDRDLC
amyloid nucleation score [2]: -0.339 ± 0.34

YRFKIMCLVSPHFV
amyloid nucleation score [2]: 0.736 ± 0.6

YRFRVLCQVCNHGLRYKFFT
amyloid nucleation score [2]: 0.372 ± 0.37

YRFVLVRNKVSYH
amyloid nucleation score [2]: -0.827 ± 0.33

YRKSWVWVLLESASAMLIGL
amyloid nucleation score [2]: 0.682 ± 0.22

YRLGGWEVNWRLDFYHRRGM
amyloid nucleation score [2]: 1.21 ± 0.32

YRLIDVYWS
amyloid nucleation score [2]: -0.632 ± 1.1

YRPAWMDWF
amyloid nucleation score [2]: 1.78 ± 0.16

YRPCGRTSPCGSGYKVSNEF
amyloid nucleation score [2]: 1.57 ± 0.15

YRRLCWPWFRKLFEVYRDN
amyloid nucleation score [2]: -0.554 ± 0.63

YRSAYFMFTVDHFGLELFFL
amyloid nucleation score [2]: 2.45 ± 0.12

YRSSSWVNWIQWH
amyloid nucleation score [2]: 3.47 ± 0.095

YRVYLQRHSGA
amyloid nucleation score [2]: 3.78 ± 0.069

YRYLLVLSWRSMFAHRLLPS
amyloid nucleation score [2]: 1.5 ± 0.5

YSASQTWCKQPIDCFIRGQN
amyloid nucleation score [2]: -0.605 ± 0.41

YSCVDAYG
amyloid nucleation score [2]: inactive

YSEMRDSQAVVAYESRVVKP
amyloid nucleation score [2]: 0.798 ± 0.46

YSEVTVRSSAAL
amyloid nucleation score [2]: 0.863 ± 0.29

YSFCKCVIVGIWFRLGWCQA
amyloid nucleation score [2]: inactive

YSGKNIAGLNFSIRCCSSIE
amyloid nucleation score [2]: 8.793 ± 0.036

YSGLSNLLGKMKRGSSLWVD
amyloid nucleation score [2]: inactive

YSIFHFYLKGFGSTW
amyloid nucleation score [2]: inactive

YSLMCQFHSSPISFFLCWLP
amyloid nucleation score [2]: 8.157 ± 0.071

YSMGAYTVSMGACA
amyloid nucleation score [2]: -1.05 ± 1.1

YSMPRSN
amyloid nucleation score [2]: -0.548 ± 0.45

YSNSDTAMSLGARLAYGVL
amyloid nucleation score [2]: 5.379 ± 0.05

YSSAGGHRLMGMGRIRYKTG
amyloid nucleation score [2]: 0.026 ± 0.56

YSYEHTRWTSLGGWHLR
amyloid nucleation score [2]: 4.66 ± 0.069

YSYWLSILRNVEL
amyloid nucleation score [2]: 4.18 ± 0.079

YTAFLFICTRALLMPDMKFL
amyloid nucleation score [2]: inactive

YTCCLL
amyloid nucleation score [2]: 5.914 ± 0.035

YTLRSNTNASMRRHLMQVPR
amyloid nucleation score [2]: -0.531 ± 1.1

YTMWGWLAAMVREMETLGSK
amyloid nucleation score [2]: -0.284 ± 0.61

YTNSQYSPLPQQSNLKVSNI
amyloid nucleation score [2]: -0.716 ± 0.56

YTNTKKVLLVSVNVPRFLPV
amyloid nucleation score [2]: 1.99 ± 0.17

YTRGCSFHIRVSSLCGQYNI
amyloid nucleation score [2]: 1.65 ± 0.18

YTVFSTESPCWISQSKLRLA
amyloid nucleation score [2]: -0.825 ± 0.78

YTVPSQNKWVENLMNWRGYR
amyloid nucleation score [2]: -0.663 ± 0.23

YVCLRRWNWRMKLTCVSKLG
amyloid nucleation score [2]: 0.734 ± 0.35

YVCPIHLSDYEVTLECKSHG
amyloid nucleation score [2]: 2.17 ± 0.18

YVCRSGWDLVAKFGILRREE
amyloid nucleation score [2]: 2.17 ± 0.2

YVEVLSKVAWASDCSRIEYA
amyloid nucleation score [2]: -0.342 ± 1.1

YVFLGD
amyloid nucleation score [2]: 2.35 ± 0.11

YVFLWWLKFCFGYH
amyloid nucleation score [2]: inactive

YVFYLVR
amyloid nucleation score [2]: 1.03 ± 0.24

YVLFLVRWRVNRV
amyloid nucleation score [2]: 2.19 ± 0.11

YVLQYTVKSDVWGTKAIRRP
amyloid nucleation score [2]: 0.007 ± 0.79

YVLSSLRICYTMLSM
amyloid nucleation score [2]: inactive

YVMNQPDKVWSHIESGNKRH
amyloid nucleation score [2]: -1.34 ± 0.62

YVPDGAQARLDASIFIVCSR
amyloid nucleation score [2]: 5.23 ± 0.055

YVQTSKCGS
amyloid nucleation score [2]: 7.1 ± 0.055

YVRRVASGAFCMKFRSTIRR
amyloid nucleation score [2]: 1.98 ± 0.084

YVSGGVKAFSFLSVCYLSPW
amyloid nucleation score [2]: 7.586 ± 0.066

YVVEHQLMYAVWLFALGGSN
amyloid nucleation score [2]: 0.655 ± 0.24

YVYDISGRITVNPITYKCQL
amyloid nucleation score [2]: -1.16 ± 0.64

YVYERIDSERRTRPCKKKMY
amyloid nucleation score [2]: inactive

YWFPEASMFLIPL
amyloid nucleation score [2]: -1.49 ± 1.1

YWLECILSGVYHDGYDSYSL
amyloid nucleation score [2]: inactive

YWNQNCELTVFSN
amyloid nucleation score [2]: inactive

YYEVCPI
amyloid nucleation score [2]: -0.076 ± 0.44

YYFIG
amyloid nucleation score [2]: 0.673 ± 0.24

YYFKFNSS
amyloid nucleation score [2]: 3.65 ± 0.12

YYHYYFGFCDNM
amyloid nucleation score [2]: 0.664 ± 0.33

YYNSCKVN
amyloid nucleation score [2]: -1.35 ± 1.1

YYRYRHLMHLIKWME
amyloid nucleation score [2]: 0.216 ± 0.53

YYSVMWYLMERAIN
amyloid nucleation score [2]: -0.975 ± 0.35

YYSYYWQTNHID
amyloid nucleation score [2]: -1.68 ± 0.62

YYTQRAAFIWKVICKVDVYV
amyloid nucleation score [2]: 2.46 ± 0.18

YYVFYMVVVCNVITIRQNHM
amyloid nucleation score [2]: 1.49 ± 0.28

YYVWVI
amyloid nucleation score [2]: -0.698 ± 0.78

YYWASRLVMPCSNRWRLYLQ
amyloid nucleation score [2]: -0.474 ± 1
